Data published in IntAct's records for PubMed 34606829.

B1: ALK tyrosine kinase receptor (Homo sapiens), Q9UM73 (parent)
chain: MGAIGLLWLLPLLLSTAAVGSGMGTGQRAGSPAAGPPLQPREPLSYSRLQRKSLAVDFVVPSLFRVYARDLLLPPSSSELKAGRPEARGSLALDCAPLLRLLGPAPGVSWTAGSPAPAEARTLSRVLKGGSVRKLRRAKQLVLELGEEAILEGCVGPPGEAAVGLLQFNLSELFSWWIRQGEGRLRIRLMPEKKASEVGREGRLSAAIRASQPRLLFQIFGTGHSSLESPTNMPSPSPDYFTWNLTWIMKDSFPFLSHRSRYGLECSFDFPCELEYSPPLHDLRNQSWSWRRIPSEEASQMDLLDGPGAERSKEMPRGSFLLLNTSADSKHTILSPWMRSSSEHCTLAVSVHRHLQPSGRYIAQLLPHNEAAREILLMPTPGKHGWTVLQGRIGRPDNPFRVALEYISSGNRSLSAVDFFALKNCSEGTSPGSKMALQSSFTCWNGTVLQLGQACDFHQDCAQGEDESQMCRKLPVGFYCNFEDGFCGWTQGTLSPHTPQWQVRTLKDARFQDHQDHALLLSTTDVPASESATVTSATFPAPIKSSPCELRMSWLIRGVLRGNVSLVLVENKTGKEQGRMVWHVAAYEGLSLWQWMVLPLLDVSDRFWLQMVAWWGQGSRAIVAFDNISISLDCYLTISGEDKILQNTAPKSRNLFERNPNKELKPGENSPRQTPIFDPTVHWLFTTCGASGPHGPTQAQCNNAYQNSNLSVEVGSEGPLKGIQIWKVPATDTYSISGYGAAGGKGGKNTMMRSHGVSVLGIFNLEKDDMLYILVGQQGEDACPSTNQLIQKVCIGENNVIEEEIRVNRSVHEWAGGGGGGGGATYVFKMKDGVPVPLIIAAGGGGRAYGAKTDTFHPERLENNSSVLGLNGNSGAAGGGGGWNDNTSLLWAGKSLQEGATGGHSCPQAMKKWGWETRGGFGGGGGGCSSGGGGGGYIGGNAASNNDPEMDGEDGVSFISPLGILYTPALKVMEGHGEVNIKHYLNCSHCEVDECHMDPESHKVICFCDHGTVLAEDGVSCIVSPTPEPHLPLSLILSVVTSALVAALVLAFSGIMIVYRRKHQELQAMQMELQSPEYKLSKLRTSTIMTDYNPNYCFAGKTSSISDLKEVPRKNITLIRGLGHGAFGEVYEGQVSGMPNDPSPLQVAVKTLPEVCSEQDELDFLMEALIISKFNHQNIVRCIGVSLQSLPRFILLELMAGGDLKSFLRETRPRPSQPSSLAMLDLLHVARDIACGCQYLEENHFIHRDIAARNCLLTCPGPGRVAKIGDFGMARDIYRASYYRKGGCAMLPVKWMPPEAFMEGIFTSKTDTWSFGVLLWEIFSLGYMPYPSKSNQEVLEFVTSGGRMDPPKNCPGPVYRIMTQCWQHQPEDRPNFAIILERIEYCTQDPDVINTALPIEYGPLVEEEEKVPVRPKDPEGVPPLLVSQQAKREEERSPAAPPPLPTTSSGKAAKKPTAAEISVRVPRGPAVEGGHVNMAFSQSNPPSELHKVHGSRNKPTSLWNPTYGSWFTEKPTKKNNPIAKKEPHDRGNLGLEGSCTVPPNVATGRLPGASLLLEPSSLTANMKEVPLFRLRHFPCGNVNYGYQQQGLPLEAATAPGAGHYEDTILKSKNSMNQPGP
partner: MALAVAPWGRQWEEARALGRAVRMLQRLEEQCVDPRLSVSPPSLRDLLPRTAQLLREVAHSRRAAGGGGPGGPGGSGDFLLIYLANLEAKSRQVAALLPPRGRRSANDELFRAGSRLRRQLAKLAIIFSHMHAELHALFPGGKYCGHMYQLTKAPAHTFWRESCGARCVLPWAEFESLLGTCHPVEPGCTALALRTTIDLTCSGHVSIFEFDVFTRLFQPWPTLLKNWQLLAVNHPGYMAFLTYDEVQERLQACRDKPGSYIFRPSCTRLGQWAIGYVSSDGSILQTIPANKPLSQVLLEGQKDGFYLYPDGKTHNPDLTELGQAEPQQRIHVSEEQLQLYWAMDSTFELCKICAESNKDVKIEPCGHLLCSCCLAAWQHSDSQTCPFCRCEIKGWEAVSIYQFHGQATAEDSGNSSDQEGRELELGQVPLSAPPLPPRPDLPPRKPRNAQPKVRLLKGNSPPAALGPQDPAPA
B2: ALK tyrosine kinase receptor (Homo sapiens), Q9UM73 (parent)
chain: B1 chain
partner: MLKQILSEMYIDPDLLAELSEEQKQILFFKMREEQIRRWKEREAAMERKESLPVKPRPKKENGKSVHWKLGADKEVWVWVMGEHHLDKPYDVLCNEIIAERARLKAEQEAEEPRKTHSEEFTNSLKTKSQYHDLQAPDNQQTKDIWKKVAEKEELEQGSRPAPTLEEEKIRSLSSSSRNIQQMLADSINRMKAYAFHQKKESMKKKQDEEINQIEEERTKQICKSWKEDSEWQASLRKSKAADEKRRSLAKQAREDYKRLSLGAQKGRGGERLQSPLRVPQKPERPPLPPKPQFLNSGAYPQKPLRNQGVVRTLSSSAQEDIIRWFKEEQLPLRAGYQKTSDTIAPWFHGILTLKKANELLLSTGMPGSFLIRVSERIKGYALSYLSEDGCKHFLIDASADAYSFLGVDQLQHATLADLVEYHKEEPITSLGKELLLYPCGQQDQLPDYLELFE
B3: ALK tyrosine kinase receptor (Homo sapiens), Q9UM73 (parent)
chain: B1 chain

Variants of: B1
Conditions: with cblc_human CBLC

Variant | effect of a mutation on the interaction
I1250T | decreasing interaction strength
L1196M | increasing interaction strength
F1245C | increasing interaction strength

Variants of: B2
Conditions: with sh24a_human SH2D4A

Variant | effect of a mutation on the interaction
I1250T | decreasing interaction strength
L1196M | increasing interaction strength
F1245C | increasing interaction strength

Variants of: B3
Conditions: with abl1_human ABL1, P00519
abl1_human ABL1, P00519, sequence (P00519 whole entry): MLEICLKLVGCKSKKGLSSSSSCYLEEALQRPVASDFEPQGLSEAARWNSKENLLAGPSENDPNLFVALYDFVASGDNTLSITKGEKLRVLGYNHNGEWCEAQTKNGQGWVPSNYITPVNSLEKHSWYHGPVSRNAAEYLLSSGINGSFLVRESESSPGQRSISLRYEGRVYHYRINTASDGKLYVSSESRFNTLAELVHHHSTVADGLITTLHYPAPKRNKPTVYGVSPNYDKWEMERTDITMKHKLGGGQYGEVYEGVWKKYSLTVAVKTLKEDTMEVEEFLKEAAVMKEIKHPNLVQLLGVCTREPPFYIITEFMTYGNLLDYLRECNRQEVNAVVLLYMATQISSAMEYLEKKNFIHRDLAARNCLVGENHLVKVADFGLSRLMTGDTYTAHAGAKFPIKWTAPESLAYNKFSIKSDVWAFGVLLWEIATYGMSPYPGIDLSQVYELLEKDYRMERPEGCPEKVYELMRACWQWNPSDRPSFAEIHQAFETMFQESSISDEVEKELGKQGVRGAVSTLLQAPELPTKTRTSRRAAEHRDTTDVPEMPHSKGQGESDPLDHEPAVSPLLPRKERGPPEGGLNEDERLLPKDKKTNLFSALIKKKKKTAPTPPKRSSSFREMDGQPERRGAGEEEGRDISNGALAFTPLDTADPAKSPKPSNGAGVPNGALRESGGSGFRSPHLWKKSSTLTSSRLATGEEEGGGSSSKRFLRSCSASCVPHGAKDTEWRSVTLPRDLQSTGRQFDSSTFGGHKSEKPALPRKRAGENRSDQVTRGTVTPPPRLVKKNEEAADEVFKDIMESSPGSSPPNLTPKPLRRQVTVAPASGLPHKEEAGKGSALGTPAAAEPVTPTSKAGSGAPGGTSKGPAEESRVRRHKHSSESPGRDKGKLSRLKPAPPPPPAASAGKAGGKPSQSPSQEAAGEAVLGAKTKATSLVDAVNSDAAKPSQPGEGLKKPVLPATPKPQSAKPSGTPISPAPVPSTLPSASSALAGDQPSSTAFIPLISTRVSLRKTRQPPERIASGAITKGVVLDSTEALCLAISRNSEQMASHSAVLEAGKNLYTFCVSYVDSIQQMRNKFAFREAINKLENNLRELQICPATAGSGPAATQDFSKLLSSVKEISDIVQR

Variant | effect of a mutation on the interaction
F1245C | increasing interaction strength

Variants of: B3
Conditions: with frk_human FRK

Variant | effect of a mutation on the interaction
F1245C | increasing interaction strength

Variants of: B3
Conditions: with sh24b_human SH2D4B

Variant | effect of a mutation on the interaction
F1245C | increasing interaction strength

Variants of: B3
Conditions: with srms_human SRMS

Variant | effect of a mutation on the interaction
F1245C | increasing interaction strength

Variants of: B3
Conditions: with sta5b_human STAT5B

Variant | effect of a mutation on the interaction
F1245C | increasing interaction strength

Variants of: B3
Conditions: with syk_human KARS1, Q15046
syk_human KARS1, Q15046, sequence (Q15046 whole entry, looked up): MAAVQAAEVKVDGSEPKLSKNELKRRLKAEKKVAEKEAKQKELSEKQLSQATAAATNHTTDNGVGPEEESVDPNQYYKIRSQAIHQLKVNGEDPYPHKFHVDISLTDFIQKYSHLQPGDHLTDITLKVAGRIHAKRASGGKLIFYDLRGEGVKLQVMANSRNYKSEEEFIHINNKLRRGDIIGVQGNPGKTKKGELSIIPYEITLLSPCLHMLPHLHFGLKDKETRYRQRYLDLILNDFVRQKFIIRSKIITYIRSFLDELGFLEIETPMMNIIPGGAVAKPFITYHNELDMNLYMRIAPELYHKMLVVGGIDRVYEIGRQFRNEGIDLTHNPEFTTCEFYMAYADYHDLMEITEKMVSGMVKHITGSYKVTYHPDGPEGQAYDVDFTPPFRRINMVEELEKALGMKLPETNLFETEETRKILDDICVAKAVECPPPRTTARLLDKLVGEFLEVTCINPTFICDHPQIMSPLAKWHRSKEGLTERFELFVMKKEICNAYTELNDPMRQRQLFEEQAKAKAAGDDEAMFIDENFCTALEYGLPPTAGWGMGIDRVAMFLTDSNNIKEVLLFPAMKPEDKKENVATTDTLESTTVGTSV

Variant | effect of a mutation on the interaction
F1245C | increasing interaction strength

Variants of: B3
Conditions: with crk_human CRK

Variant | effect of a mutation on the interaction
F1245C | increasing interaction strength

Variants of: B3
Conditions: with fgr_human FGR

Variant | effect of a mutation on the interaction
F1245C | increasing interaction strength

Variants of: B3
Conditions: with grb14_human GRB14, Q14449
grb14_human GRB14, Q14449, sequence (Q14449 whole entry): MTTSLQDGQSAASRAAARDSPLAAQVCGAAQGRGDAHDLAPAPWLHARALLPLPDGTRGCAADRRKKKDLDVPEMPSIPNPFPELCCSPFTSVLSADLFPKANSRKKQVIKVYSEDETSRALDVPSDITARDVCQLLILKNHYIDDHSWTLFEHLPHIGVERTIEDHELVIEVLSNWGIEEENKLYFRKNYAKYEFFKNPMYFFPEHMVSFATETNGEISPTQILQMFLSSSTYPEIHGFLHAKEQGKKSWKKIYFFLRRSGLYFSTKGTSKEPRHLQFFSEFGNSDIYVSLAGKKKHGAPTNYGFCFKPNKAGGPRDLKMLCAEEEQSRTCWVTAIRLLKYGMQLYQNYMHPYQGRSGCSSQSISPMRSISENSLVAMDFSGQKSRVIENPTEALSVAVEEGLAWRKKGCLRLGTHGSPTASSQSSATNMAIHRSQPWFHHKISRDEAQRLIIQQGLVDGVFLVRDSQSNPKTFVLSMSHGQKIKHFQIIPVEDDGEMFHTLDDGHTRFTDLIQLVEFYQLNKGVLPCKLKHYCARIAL

Variant | effect of a mutation on the interaction
F1245C | increasing interaction strength

Variants of: B3
Conditions: with hck_human HCK

Variant | effect of a mutation on the interaction
F1245C | increasing interaction strength

Variants of: B3
Conditions: with lyn_human LYN

Variant | effect of a mutation on the interaction
F1245C | increasing interaction strength

Variants of: B3
Conditions: with nck2_human NCK2, O43639
nck2_human NCK2, O43639, sequence (O43639 whole entry): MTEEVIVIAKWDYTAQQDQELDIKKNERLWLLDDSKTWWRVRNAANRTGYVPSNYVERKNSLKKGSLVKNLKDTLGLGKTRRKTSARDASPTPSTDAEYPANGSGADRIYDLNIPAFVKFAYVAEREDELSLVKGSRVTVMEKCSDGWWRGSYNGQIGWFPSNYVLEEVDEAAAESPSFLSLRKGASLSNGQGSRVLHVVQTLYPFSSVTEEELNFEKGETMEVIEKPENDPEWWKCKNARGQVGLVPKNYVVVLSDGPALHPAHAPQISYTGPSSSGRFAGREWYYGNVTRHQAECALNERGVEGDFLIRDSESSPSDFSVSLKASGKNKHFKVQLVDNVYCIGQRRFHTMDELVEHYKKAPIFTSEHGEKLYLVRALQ

Variant | effect of a mutation on the interaction
F1245C | increasing interaction strength

Variants of: B3
Conditions: with sh2b1_human SH2B1, Q9NRF2

Variant | effect of a mutation on the interaction
F1245C | increasing interaction strength

Variants of: B3
Conditions: with shb_human SHB

Variant | effect of a mutation on the interaction
F1245C | increasing interaction strength

Variants of: B3
Conditions: with socs3_human SOCS3, O14543
socs3_human SOCS3, O14543, sequence (O14543 whole entry): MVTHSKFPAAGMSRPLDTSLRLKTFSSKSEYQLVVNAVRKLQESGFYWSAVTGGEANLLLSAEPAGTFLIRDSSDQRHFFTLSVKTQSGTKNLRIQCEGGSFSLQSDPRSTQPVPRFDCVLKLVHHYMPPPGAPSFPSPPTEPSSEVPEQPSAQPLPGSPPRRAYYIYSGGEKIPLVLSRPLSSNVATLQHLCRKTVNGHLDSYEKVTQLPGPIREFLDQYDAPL

Variant | effect of a mutation on the interaction
F1245C | increasing interaction strength

Variants of: B3
Conditions: with stat2_human STAT2, P52630
stat2_human STAT2, P52630, sequence (P52630 whole entry): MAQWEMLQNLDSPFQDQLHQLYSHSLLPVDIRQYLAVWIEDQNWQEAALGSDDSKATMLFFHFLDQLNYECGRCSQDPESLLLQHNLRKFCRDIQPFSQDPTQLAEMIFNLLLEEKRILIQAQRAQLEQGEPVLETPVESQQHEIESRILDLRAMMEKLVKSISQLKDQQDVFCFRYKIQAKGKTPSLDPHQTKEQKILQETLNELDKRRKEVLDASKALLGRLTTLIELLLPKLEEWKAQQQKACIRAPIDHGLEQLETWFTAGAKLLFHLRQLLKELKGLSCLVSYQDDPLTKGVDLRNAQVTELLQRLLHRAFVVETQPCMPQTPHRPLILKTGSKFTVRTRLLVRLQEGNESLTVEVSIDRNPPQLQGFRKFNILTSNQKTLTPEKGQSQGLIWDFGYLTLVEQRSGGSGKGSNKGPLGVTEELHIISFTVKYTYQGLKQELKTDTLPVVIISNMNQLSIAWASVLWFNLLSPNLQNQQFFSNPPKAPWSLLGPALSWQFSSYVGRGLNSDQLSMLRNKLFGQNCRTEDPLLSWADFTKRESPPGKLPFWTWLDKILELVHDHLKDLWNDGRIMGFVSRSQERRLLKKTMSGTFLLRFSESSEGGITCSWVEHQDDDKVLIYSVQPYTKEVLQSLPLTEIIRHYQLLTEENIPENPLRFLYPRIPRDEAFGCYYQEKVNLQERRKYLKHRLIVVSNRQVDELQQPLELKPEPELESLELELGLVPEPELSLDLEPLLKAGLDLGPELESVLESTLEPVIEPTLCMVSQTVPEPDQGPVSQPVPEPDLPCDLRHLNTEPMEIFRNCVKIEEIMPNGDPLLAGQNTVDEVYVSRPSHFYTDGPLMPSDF

Variant | effect of a mutation on the interaction
F1245C | increasing interaction strength

Variants of: B3
Conditions: with zap70_human ZAP70, P43403
zap70_human ZAP70, P43403, sequence (P43403 whole entry): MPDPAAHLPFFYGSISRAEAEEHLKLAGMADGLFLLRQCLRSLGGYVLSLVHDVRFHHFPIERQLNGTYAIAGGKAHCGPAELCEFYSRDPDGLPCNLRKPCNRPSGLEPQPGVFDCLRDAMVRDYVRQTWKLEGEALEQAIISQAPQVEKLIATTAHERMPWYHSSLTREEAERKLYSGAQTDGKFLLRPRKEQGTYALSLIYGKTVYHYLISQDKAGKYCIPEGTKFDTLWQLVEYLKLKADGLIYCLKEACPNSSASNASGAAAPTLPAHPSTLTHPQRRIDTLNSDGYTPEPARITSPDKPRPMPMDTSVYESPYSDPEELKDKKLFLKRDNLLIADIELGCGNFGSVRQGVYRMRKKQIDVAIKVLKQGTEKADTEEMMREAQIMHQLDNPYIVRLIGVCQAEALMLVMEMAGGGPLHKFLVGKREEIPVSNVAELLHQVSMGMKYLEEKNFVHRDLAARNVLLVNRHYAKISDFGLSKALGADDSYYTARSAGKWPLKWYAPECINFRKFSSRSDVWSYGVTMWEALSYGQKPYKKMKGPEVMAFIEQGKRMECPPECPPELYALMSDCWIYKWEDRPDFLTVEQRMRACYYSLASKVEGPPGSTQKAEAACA

Variant | effect of a mutation on the interaction
F1245C | increasing interaction strength

Variants of: B3
Conditions: with rack1_human RACK1, P63244

Variant | effect of a mutation on the interaction
F1245C | increasing interaction strength
